From US20220372155A1 (LYVGEN BIOPHARMA, published 2022)
Blank lines part the entries; values can stand above or below the binder they belong to.

Legend:
[1] = target: T1, human CD40 expressed on CHO cells (human, UniProt P25942 21-277); assay: FACS, CHO cells
T1 construct: whole, on cells; also used for the reporter cells over-expressing human CD40; also called cellular CD40; CHO-CD40 cells

[2] = target: T2, Human CD40 ECD protein (mouse IgG2a Fc tag) (human, UniProt P25942 21-193); assay: bridging ELISA, coated B7H3-His, soluble CD40-msFc
T2 construct: extracellular domain; also called Human CD40-msFc; human recombinant CD40; not shown: mouse IgG2a Fc tag
Description: Anti-B7H3/CD40 bi-specific antibodies were analyzed by ELISA for their simultaneous binding to recombinant human B7H3 and human CD40. Briefly, Human B7H3 CD protein (His-tag) was diluted and coated onto an ELISA plate with a volume of […] by incubation at 4° C. overnight. The next day, the plate was blocked with PBST-BSA buffer, then serially diluted samples of anti-B7H3/CD40 bi-specific antibodies were pipetted into appropriate wells at 50 μL/well, and the plate was incubated for 1 h followed by washing. Human CD40-msFc antibody was added into the plate at 50 μL/well. After 1-hour incubation at room temperature, […] anti-Mouse IgG (H+L) antibody was added into the plate at 100 μL/well. The plate was incubated for 1 hour at room temperature followed by washing. TMB substrate solution was added at 100 p L/well and the color development was stopped by adding 100 uUwell Stop Solution (2N H2SO4). Absorbance at 450 nm and 620 nm was read by Tecan F200 Pro plate reader. GraphPad 7.0, “[Agonist] vs. response—Variable slope (four parameters)” was used to plot the binding data and calculate binding EC50 values.

[3] = target: T3, human PD-L1 expressed on CHO cells (human, UniProt Q9NZQ7 19-290); assay: FACS, CHO cells
T3 construct: whole, on cells; also used for human PD-L1 on Raji cells in the reporter assay; also called cell surface PD-L1; Raji-PD-L1 cells
T3 sequence (Q9NZQ7 19-290): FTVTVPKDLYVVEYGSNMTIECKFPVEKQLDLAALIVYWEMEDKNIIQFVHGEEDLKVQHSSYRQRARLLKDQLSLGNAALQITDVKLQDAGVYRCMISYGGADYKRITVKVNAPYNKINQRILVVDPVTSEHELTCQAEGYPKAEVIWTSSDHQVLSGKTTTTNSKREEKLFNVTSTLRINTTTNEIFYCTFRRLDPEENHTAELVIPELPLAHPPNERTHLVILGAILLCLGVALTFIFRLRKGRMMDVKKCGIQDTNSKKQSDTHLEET

T2 sequence (P25942 21-193): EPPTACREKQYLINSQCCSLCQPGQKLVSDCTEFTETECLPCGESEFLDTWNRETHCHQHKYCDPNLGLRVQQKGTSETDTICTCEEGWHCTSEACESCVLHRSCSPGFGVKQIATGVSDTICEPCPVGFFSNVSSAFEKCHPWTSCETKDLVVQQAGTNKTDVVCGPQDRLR
T1 sequence (P25942 21-277): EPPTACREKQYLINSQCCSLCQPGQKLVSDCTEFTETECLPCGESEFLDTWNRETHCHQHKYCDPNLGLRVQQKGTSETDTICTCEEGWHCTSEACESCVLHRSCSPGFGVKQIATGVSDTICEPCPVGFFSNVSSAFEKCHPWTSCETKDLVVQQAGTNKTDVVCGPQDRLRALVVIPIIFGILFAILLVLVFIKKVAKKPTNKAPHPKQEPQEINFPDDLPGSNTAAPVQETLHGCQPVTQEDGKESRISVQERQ

binding result [1]: binds | binding result [2]: binds
B4: Ly611 (bispecific antibody, human IgG1, kappa)
heavy: EVQLQQSGPELVKPGASVKMSCKASGYTFTSYVMHWVKQKPGQGLEWIGYINPYNDGTECTDKFKGKATLTSDKSSSTAYMELSSLTSEDSAVYYCASIYYGYDGTYFGVWGAGTSVTVSSASTKGPSVFPLAPSSKSTSGGTAALGCLVKDYFPEPVTVSWNSGALTSGVHTFPAVLQSSGLYSLSSVVTVPSSSLGTQTYICNVNHKPSNTKVDKKVEPKSCDKTHTCPPCPAPELLGPSVFLFPPKPKDTLMISRTPEVTCVVVDVSHEDPEVKFNWYVDGVEVHNAKTKPREEQYNSTYRVVSVLTVLHQDWLNGKEYKCKVSNKALPAPIEKTISKAKGQPREPQVYTLPPSREEMTKNQVSLTCLVKGFYPSDIAVEWESNGQPENNYKTTPPVLDSDGSFFLYSKLTVDKSRWQQGNVFSCSVMHEALHNHYTQKSLSLSPGGGGGSGGGGSGGGGSGGGGSQVQLVESGGGLVQPGGSLKLSCATSGFNFNDYFMNWVRQASGKGLEWVGQIRNKNYNYATYYTESLEGRVTISRDDSKNTAYLQMNSLKTEDTAVYYCTSYYYDGFADYFDYWGQGTTVTVSSGGGGSGGGGSGGGGSGGGGSDIQMTQSPSSLSASVGDRVTITCKASQNIYIYLNWYQQKPGKAPKLLIYNTNNLQTGVPSRFSGSGSGTDFTLTISSLQPEDFATYYCLQHSSRRTFGGGTKVEIK
light: QIVLSQSPAILSTSPGEKVTMTCRASSSVSYMHWYQQKPGSSPKPWIYATSNLASGVPARFSGSRSGTSYSLTISRVEAEDAATYYCQQWSSNTLTFGGGTKLELKRTVAAPSVFIFPPSDEQLKSGTASVVCLLNNFYPREAKVQWKVDNALQSGNSQESVTEQDSKDSTYSLSSTLTLSKADYEKHKVYACEVTHQGLSSPVTKSFNRGEC
notes: Ly383 HC (IgG1 mutated Fc)-TM740 scFv VH-VL + Ly383 LC

binding result [3]: binds
B5: Ly076 (antibody, human IgG1, kappa, V domains shown)
VH: QVQLVQSGAEVKKPGASVKVSCKASGYTFTDFWMSWVRQAPGQGLEWMGQIYPNTGTTHSNEKFKGRVTMTRDTSTSTVYMELSSLRSEDTAVYYCARSYHISTTPNWFAYWGQGTLVTVSS
VL: DIQMTQSPSSLSASVGDRVTITCKASQNVYKKLEWYQQKPGKVPKVLIYHTNILQTGVPSRFSGSGSGTDYTLTISSLQPEDVATYYCYQWNSGPTFGGGTKVEIKR
notes: humanized LYV5574, VH-1 and VL-2 (L42V, F71Y), human IgG1/kappa

binding result [1]: binds | binding result [2]: binds
B6: Ly614 (bispecific antibody, human IgG1, kappa)
heavy: QVQLQQPGAELVKPGASVKLSCKASGYTFTSYWMHWVKQRPGQGLEWIGMIHPNSGGTNYNEKFKGKGTLTVDKSSSTAYMQLSSLTSDDSAVYYCVTSQATWFAYWGQGTLVTVSAASTKGPSVFPLAPSSKSTSGGTAALGCLVKDYFPEPVTVSWNSGALTSGVHTFPAVLQSSGLYSLSSVVTVPSSSLGTQTYICNVNHKPSNTKVDKKVEPKSCDKTHTCPPCPAPELLGPSVFLFPPKPKDTLMISRTPEVTCVVVDVSHEDPEVKFNWYVDGVEVHNAKTKPREEQYNSTYRVVSVLTVLHQDWLNGKEYKCKVSNKALPAPIEKTISKAKGQPREPQVYTLPPSREEMTKNQVSLTCLVKGFYPSDIAVEWESNGQPENNYKTTPPVLDSDGSFFLYSKLTVDKSRWQQGNVFSCSVMHEALHNHYTQKSLSLSPGGGGGSGGGGSGGGGSGGGGSDIQMTQSPSSLSASVGDRVTITCKASQNIYIYLNWYQQKPGKAPKLLIYNTNNLQTGVPSRFSGSGSGTDFTLTISSLQPEDFATYYCLQHSSRRTFGGGTKVEIKGGGGSGGGGSGGGGSGGGGSQVQLVESGGGLVQPGGSLKLSCATSGFNFNDYFMNWVRQASGKGLEWVGQIRNKNYNYATYYTESLEGRVTISRDDSKNTAYLQMNSLKTEDTAVYYCTSYYYDGFADYFDYWGQGTTVTVSS
light: ENVLTQSPAIMSVSPGEKVTMTCRASSSVSSSYLHWYQQKSGASPKFWIYSTSNLASGVPARFSGSGSGTSYSLTISSVEAEDAATYYCQHYSGYPLTFGAGTKLELRRTVAAPSVFIFPPSDEQLKSGTASVVCLLNNFYPREAKVQWKVDNALQSGNSQESVTEQDSKDSTYSLSSTLTLSKADYEKHKVYACEVTHQGLSSPVTKSFNRGEC
notes: Ly387 HC (IgG1 mutated Fc)-TM740 scFv VL-VH + Ly387 LC

binding result [1]: binds | binding result [2]: binds
B7: Ly615 (bispecific antibody, human IgG1, kappa)
heavy: QVQLQQPGAELVKPGASVKLSCKASGYTFTSYWMHWVKQRPGQGLEWIGMIHPNSGGTNYNEKFKGKGTLTVDKSSSTAYMQLSSLTSDDSAVYYCVTSQATWFAYWGQGTLVTVSAASTKGPSVFPLAPSSKSTSGGTAALGCLVKDYFPEPVTVSWNSGALTSGVHTFPAVLQSSGLYSLSSVVTVPSSSLGTQTYICNVNHKPSNTKVDKKVEPKSCDKTHTCPPCPAPELLGPSVFLFPPKPKDTLMISRTPEVTCVVVDVSHEDPEVKFNWYVDGVEVHNAKTKPREEQYNSTYRVVSVLTVLHQDWLNGKEYKCKVSNKALPAPIEKTISKAKGQPREPQVYTLPPSREEMTKNQVSLTCLVKGFYPSDIAVEWESNGQPENNYKTTPPVLDSDGSFFLYSKLTVDKSRWQQGNVFSCSVMHEALHNHYTQKSLSLSPGGGGGSGGGGSGGGGSGGGGSQVQLVESGGGLVQPGGSLKLSCATSGFNFNDYFMNWVRQASGKGLEWVGQIRNKNYNYATYYTESLEGRVTISRDDSKNTAYLQMNSLKTEDTAVYYCTSYYYDGFADYFDYWGQGTTVTVSSGGGGSGGGGSGGGGSGGGGSDIQMTQSPSSLSASVGDRVTITCKASQNIYIYLNWYQQKPGKAPKLLIYNTNNLQTGVPSRFSGSGSGTDFTLTISSLQPEDFATYYCLQHSSRRTFGGGTKVEIK
light: B6 light
notes: Ly387 HC (IgG1 mutated Fc)-TM740 scFv VH-VL + Ly387 LC

More lines, now with the values behind:

B1: Ly610 (bispecific antibody, human IgG1, kappa)
heavy: EVQLQQSGPELVKPGASVKMSCKASGYTFTSYVMHWVKQKPGQGLEWIGYINPYNDGTECTDKFKGKATLTSDKSSSTAYMELSSLTSEDSAVYYCASIYYGYDGTYFGVWGAGTSVTVSSASTKGPSVFPLAPSSKSTSGGTAALGCLVKDYFPEPVTVSWNSGALTSGVHTFPAVLQSSGLYSLSSVVTVPSSSLGTQTYICNVNHKPSNTKVDKKVEPKSCDKTHTCPPCPAPELLGPSVFLFPPKPKDTLMISRTPEVTCVVVDVSHEDPEVKFNWYVDGVEVHNAKTKPREEQYNSTYRVVSVLTVLHQDWLNGKEYKCKVSNKALPAPIEKTISKAKGQPREPQVYTLPPSREEMTKNQVSLTCLVKGFYPSDIAVEWESNGQPENNYKTTPPVLDSDGSFFLYSKLTVDKSRWQQGNVFSCSVMHEALHNHYTQKSLSLSPGGGGGSGGGGSGGGGSGGGGSDIQMTQSPSSLSASVGDRVTITCKASQNIYIYLNWYQQKPGKAPKLLIYNTNNLQTGVPSRFSGSGSGTDFTLTISSLQPEDFATYYCLQHSSRRTFGGGTKVEIKGGGGSGGGGSGGGGSGGGGSQVQLVESGGGLVQPGGSLKLSCATSGFNFNDYFMNWVRQASGKGLEWVGQIRNKNYNYATYYTESLEGRVTISRDDSKNTAYLQMNSLKTEDTAVYYCTSYYYDGFADYFDYWGQGTTVTVSS
light: B4 light
notes: Ly383 HC (IgG1 mutated Fc)-TM740 scFv VL-VH + Ly383 LC
binding result [1]: binds | binding result [2]: binds

B2: Ly613 (bispecific antibody, human IgG1, kappa)
heavy: EVQLQQSGPELVKPGASVKMSCKASGYTFTSYVMHWVKQKPGQGLEWIGYINPYNDGTECTDKFKGKATLTSDKSSSTAYMELSSLTSEDSAVYYCASIYYGYDGTYFGVWGAGTSVTVSSASTKGPSVFPLAPSSKSTSGGTAALGCLVKDYFPEPVTVSWNSGALTSGVHTFPAVLQSSGLYSLSSVVTVPSSSLGTQTYICNVNHKPSNTKVDKKVEPKSCDKTHTCPPCPAPELLGPSVFLFPPKPKDTLMISRTPEVTCVVVDVSHEDPEVKFNWYVDGVEVHNAKTKPREEQYNSTYRVVSVLTVLHQDWLNGKEYKCKVSNKALPAPIEKTISKAKGQPREPQVYTLPPSREEMTKNQVSLTCLVKGFYPSDIAVEWESNGQPENNYKTTPPVLDSDGSFFLYSKLTVDKSRWQQGNVFSCSVMHEALHNHYTQKSLSLSPGGGGGSGGGGSGGGGSGGGGSEVQLVESGGGLVQPGGSLRLSCAASGFTFTNYGLHWVRQAPGKGLEWVSSISPSGGVTYYRDSVKGRFTISRDNSKNTLYLQMNSLRAEDTAVYYCAKPFLGWGGANWIAHWGQGTLVTVSSGGGGSGGGGSGGGGSGGGGSDIQMTQSPSSLSASVGDRVTITCLASEDISNDLAWYQQKPGKAPKLLIYFVDRLLDGVPSRFSGSGSGTDFTLTISSLQPEDFATYYCQQSYKYPPTFGQGTKLEIK
light: B4 light
notes: Ly383 HC (IgG1 mutated Fc)-TM559 scFv VH-VL + Ly383 LC
binding result [1]: binds | binding result [2]: binds

B3: Ly612 (bispecific antibody, human IgG1, kappa)
heavy: EVQLQQSGPELVKPGASVKMSCKASGYTFTSYVMHWVKQKPGQGLEWIGYINPYNDGTECTDKFKGKATLTSDKSSSTAYMELSSLTSEDSAVYYCASIYYGYDGTYFGVWGAGTSVTVSSASTKGPSVFPLAPSSKSTSGGTAALGCLVKDYFPEPVTVSWNSGALTSGVHTFPAVLQSSGLYSLSSVVTVPSSSLGTQTYICNVNHKPSNTKVDKKVEPKSCDKTHTCPPCPAPELLGPSVFLFPPKPKDTLMISRTPEVTCVVVDVSHEDPEVKFNWYVDGVEVHNAKTKPREEQYNSTYRVVSVLTVLHQDWLNGKEYKCKVSNKALPAPIEKTISKAKGQPREPQVYTLPPSREEMTKNQVSLTCLVKGFYPSDIAVEWESNGQPENNYKTTPPVLDSDGSFFLYSKLTVDKSRWQQGNVFSCSVMHEALHNHYTQKSLSLSPGGGGGSGGGGSGGGGSGGGGSDIQMTQSPSSLSASVGDRVTITCLASEDISNDLAWYQQKPGKAPKLLIYFVDRLLDGVPSRFSGSGSGTDFTLTISSLQPEDFATYYCQQSYKYPPTFGQGTKLEIKGGGGSGGGGSGGGGSGGGGSEVQLVESGGGLVQPGGSLRLSCAASGFTFTNYGLHWVRQAPGKGLEWVSSISPSGGVTYYRDSVKGRFTISRDNSKNTLYLQMNSLRAEDTAVYYCAKPFLGWGGANWIAHWGQGTLVTVSS
light: B4 light
notes: Ly383 HC (IgG1 mutated Fc)-TM559 scFv VL-VH + Ly383 LC
binding result [1]: binds | binding result [2]: binds
